B1: Sec7f, Sec7(203-2009) purified fragment (domain or fragment, yeast, UniProt P11075 203-2009, looked up)
chain: PRSTHTRNISLSSNGSNTNSTIILVKTTLETILNDKDIKKNSNAQKAIERTLQKFKEFDPQTTNNPHYVDSILVFEALRASCRTKSSKVQSLALDCLSKLFSFRSLDETLLVNPPDSLASNDQRQDAADGITPPPKQKIIDAAIDTISDCFQGEGTDDRVELQIVRALSSCILEEDSSSLCHGASLLKAIRTIYNVFVFSLNPSNQGIAQATLTQIISSVYDKIDLKQSTSSAVSLSTKNHQQQSAIELSEASENAETPAPLTLENMDKLNDDEERLMDAQQPDSIAITNQDLAVKDAFLVFRVMAKICAKPLETELDMRSHAVRSKLLSLHIIYSIIKDHIDVFLSHNIFLPGKERVCFIDSIRQYLRLVLSRNAASPLAPVFEVTLEIMWLLIANLRADFVKEIPVFLTEIYFPISELTTSTSQQKRYFLSVIQRICNDPRTLVEFYLNYDCNPGMPNVMEITVDYLTRLALTRVEITQTQRSYYDEQISKSLSTYNFSQLPLLTSSNLSSSPDVGQVNLLFPLDFALKMVSLNCIVSVLRSLSSWAHKALNPNTHTANKVLLNTTSSARQESRSSLSNDVRSSIMTSNDDFKPTYEDEESRSLSSQNIDADDPTQFENLKLRKTALSECIAIFNNKPKKAIPVLIKKGFLKDDSPISIAKWLLETEGLDMAAVGDYLGEGDDKNIAIMHAFVDEFDFTGMSIVDALRSFLQSFRLPGEGQKIDRFMLKFAERFVDQNPGVFSKADTAYVLSYSLIMLNTDLHSSQIKNKMSLQEFLENNEGIDNGRDLPRDFLEGLFNEIANNEIKLISEQHQAMLSGDTNLVQQQQSAFNFFNSRDLTREAYNQVSKEISSKTELVFKNLNKNKGGPDVYYAASHVEHVKSIFETLWMSFLAALTPPFKDYDDIDTTNKCLEGLKISIKIASTFRINDARTSFVGALVQFCNLQNLEEIKVKNVNAMVILLEVALSEGNYLEGSWKDILLVVSQMERLQLISKGIDRDTVPDVAQARVANPRVSYESSRSNNTSFFDVWGKKATPTELAQEKHHNQTLSPEISKFISSSELVVLMDNIFTKSSELSGNAIVDFIKALTAVSLEEIESSENASTPRMFSLQKMVDVCYYNMDRIKLEWTPLWAVMGKAFNKIATNSNLAVVFFAIDSLRQLSMRFLDIEELSGFEFQHDFLKPFEYTVQNSGNTEVQEMIIECFRNFILTKSESIKSGWKPILESLQYTARSSTESIVLKTQLLVSNDIVTNHFENVFSQEDAFSELVGVFREITKNKRFQKLSLHALESLRKMTQNVADICFYNENKTEEERKHNDALLRGKDIFQDVWFPMLFCFNDTIMTAEDLEVRSRALNYMFDALVAYGGKFNDDFWEKICKKLLFPIFGVLSKHWEVNQFNSHDDLSVWLSTTLIQALRNLIALFTHYFESLNRMLDGFLGLLVSCICQENDTIARIGRSCLQQLILQNVSKFNEYHWNQIGDVFDKLFDLTTANELFDYDPLQQGRKSSVSHHQTTNDTSQHSDDDSNDRRENDSNISETVERAHQEESSEDVGGDMVETLNGQTKLNNGNSVPTVKDELNPKPASLSIPKKTKHMKRNESNEDIRRRINIKNSIVVKCVLQLLMIELLNELFENEDFAHCIPYKEAIRITRLLEKSYEFSRDFNEDYGLRTRLVEARVVDKIPNLLKQETSAAAVLLDIMFQLYLNDDEKKADLITRLITICIQVVEGYVSLDDRTMERSINAWRSVIVEILQGYYEFDDEDFRLYCPAMYALVIQILDKSVPTELRHAIKQFLSRVGELYLSTD
B2: Sec7ΔC+HDS1, Sec7 residues 203-1220, purified (domain or fragment, yeast, UniProt P11075 203-1220, looked up)
chain: PRSTHTRNISLSSNGSNTNSTIILVKTTLETILNDKDIKKNSNAQKAIERTLQKFKEFDPQTTNNPHYVDSILVFEALRASCRTKSSKVQSLALDCLSKLFSFRSLDETLLVNPPDSLASNDQRQDAADGITPPPKQKIIDAAIDTISDCFQGEGTDDRVELQIVRALSSCILEEDSSSLCHGASLLKAIRTIYNVFVFSLNPSNQGIAQATLTQIISSVYDKIDLKQSTSSAVSLSTKNHQQQSAIELSEASENAETPAPLTLENMDKLNDDEERLMDAQQPDSIAITNQDLAVKDAFLVFRVMAKICAKPLETELDMRSHAVRSKLLSLHIIYSIIKDHIDVFLSHNIFLPGKERVCFIDSIRQYLRLVLSRNAASPLAPVFEVTLEIMWLLIANLRADFVKEIPVFLTEIYFPISELTTSTSQQKRYFLSVIQRICNDPRTLVEFYLNYDCNPGMPNVMEITVDYLTRLALTRVEITQTQRSYYDEQISKSLSTYNFSQLPLLTSSNLSSSPDVGQVNLLFPLDFALKMVSLNCIVSVLRSLSSWAHKALNPNTHTANKVLLNTTSSARQESRSSLSNDVRSSIMTSNDDFKPTYEDEESRSLSSQNIDADDPTQFENLKLRKTALSECIAIFNNKPKKAIPVLIKKGFLKDDSPISIAKWLLETEGLDMAAVGDYLGEGDDKNIAIMHAFVDEFDFTGMSIVDALRSFLQSFRLPGEGQKIDRFMLKFAERFVDQNPGVFSKADTAYVLSYSLIMLNTDLHSSQIKNKMSLQEFLENNEGIDNGRDLPRDFLEGLFNEIANNEIKLISEQHQAMLSGDTNLVQQQQSAFNFFNSRDLTREAYNQVSKEISSKTELVFKNLNKNKGGPDVYYAASHVEHVKSIFETLWMSFLAALTPPFKDYDDIDTTNKCLEGLKISIKIASTFRINDARTSFVGALVQFCNLQNLEEIKVKNVNAMVILLEVALSEGNYLEGSWKDILLVVSQMERLQLISKGIDRDTVPDVAQARVANPRVS

Molecular target: the molecule itself
Assay: combined sedimentation/Stokes analysis

| Protein | stoichiometry N |
| --- | --- |
| B1 | 2 |
| B2 | 2 |
